Laboratory results: patent publication US8361765B2, “Enzymic method for the enantioselective reduction of keto compounds” (IEP GmbH, priority 2001, dated 2013)

Columns and labels:
Format in all cases: biochemical, Lactobacillus minor
[1] = Temperature stability of L. minor alcohol dehydrogenase; conditions: for temperature up to which the enzyme is stable: 30 min incubation; for Activity in % (n = 4): measured at 30° C.
Protocol: The temperature stability for the range from 25° C. to 50° C. was determined similarly to the manner described in A.). For this purpose, in each case a 1:100 dilution of the purified enzyme was incubated at the particular temperature for 30 min and then measured at 30° C. using the above assay procedure. Here too, the starting value used was the measured value obtained immediately after diluting the enzyme in triethanolamine buffer 50 mM pH=7.0. This value was also set here as 100% value. L. minor alcohol dehydrogenase is stable up to a temperature of 40° C. Thereafter, the activity rapidly declines.

[2] = pH stability of cloned L. minor alcohol dehydrogenase
Protocol: The activity of the enzyme as a function of storage in buffers with different pH values in the range from pH 4 to 11 was studied. For this purpose, various buffers (50 mM) in the range from pH 4 to 11 were prepared and the enzyme purified in Example 2 was diluted 1:100 therein and incubated for 30 min. All buffers contained 1 mM MgCl2. 10 μl of this were then used in the normal enzyme assay (triethanolamine buffer 100 mM pH=7.0, 1 mM MgCl2, 10 mM ethyl 4-chloro-3-oxo-butanoate and 0.19 mM NADPH). The reaction was monitored at 30° C. and 340 nm for 1 min.
The starting value here is the measured value obtained immediately after diluting the enzyme in triethanolamine buffer 50 mM pH=7.0. Under predefined conditions, this value corresponded to a change in extinction of 0.20/min and was set as 100% value, with all subsequent measured values being related to this value.

[3] = pH optimum of the enzymic reaction; conditions: 30° C.
Protocol: As in the standard assay, the concentration of ethyl 4-chloro-3-oxo-butanoate and of NADPH was 10 mM and 0.19 mM, respectively. The reaction was determined at 30° C.

[4] = Temperature optimum of the enzymic reaction
Protocol: The optimal assay temperature was determined by measuring the enzyme activity from 25° C. to 60° C. The assay mixture corresponded to the standard concentration of ethyl 4-chloro-3-oxo-butanoate and NADPH.

[5] = Enzyme obtainment and purification: activity of crude extract and purified enzyme; conditions: for volume activity: 25° C.
Protocol: The enzyme was obtained by culturing the strain with the highest enzymic activity in a fermenter (fed batch, 10 l) and inducing it at 40 OD500 with 1 mM IPTG. After 18 h, the cells were harvested, taking up 300 g of cells in 3 l of Kpi buffer (50 mM, pH=7, 1 mM MgCl2) and disrupted subsequently by means of a French press (Gaullin, Siemens).
To characterize the enzyme, a portion of the enzyme obtained was purified by means of […] chromatography on Q-Sepharose ff (fast flow). For this purpose, the column used was equilibrated with 50 mM Kpi buffer pH=7.0, 1 mM MgCl2. After application of the crude extract to the column and brief washing with equilibration buffer, the enzyme was eluted with an increasing linear salt gradient (0-1M NaCl, 1 ml/min) at a salt concentration of about 0.3 M NaCl. […] The enzyme purified in this way thus has a specific activity of approximately 35 to 40 U/mg of protein.
All enzymic activities were determined at 25° C. The enzyme activity was calculated as follows: • Calculation: 1 unit=conversion of 1 μmol of substrate per min • Lambert-Beer law • NADPH decrease was monitored at 340 nm (see enzymic assay mixture)=ΔE/min • N=enzyme dilution factor • V=enzyme volume in ml (0.01) • Vcuvette=cuvette volume=1 ml • d=cuvette light path=1 cm • eNADPH NADPH extinction coefficient=6.22 [mM^−1*cm^−1] • Activity=(ΔE/min*N*Vcuvette)/(eNADPH*V*d)
Protein determination was carried out according to Bradford (Bio-Rad Laboratories GmbH, Protein Assay).

[6] = test system: L. minor alcohol dehydrogenase; test: Enzyme stability under process conditions; conditions: for several days
Protocol: The stability of the enzyme under process conditions was studied by diluting L. minor alcohol dehydrogenase 1:100 with the solvent mixtures used in the two-phase system, followed by incubation at room temperature. 10 μl of the enzyme solution were then used in the standard assay mixture. Table 8 depicts the enzyme activities as a % of the starting value.

[7] = crude extract after fermentation and French press

B1: L. minor alcohol dehydrogenase: R-specific alcohol dehydrogenase from Lactobacillus minor, SEQ ID NO: 4, overexpressed in Escherichia coli RB 791 (protein, listed as Lactobacillus sp.)
chain: MRGSHHHHHHGSMTDRLKGKVAIVTGGTLGIGLAIADKFVEEGAKVVITGRHADVGEKAARSIGGTDVIRFVQHDASDETGWTKLFDTTEEAFGPVTTVVNNAGIAVSKSVEDTTTEEWRKLLSVNLDGVFFGTRLGIQRMKNKGLGASIINMSSIEGEVGDPALGAYNASKGAVRIMSKSAALDCALKDYDVRVNTVHPGYIKTPLVDDLEGAEEMMSQRTKTPMGHIGEPNDIAWICVYLASDESKFATGAEFVVDGGYTAQ
**Q.** For B1, which “temperature up to which the enzyme is stable” value [1] is on record?
**A.** ≤ 40 °C

**Q.** What about the “temperature up to which the enzyme is stable” value ([1]; listed as Lactobacillus minor alcohol dehydrogenase) of the same molecule?
**A.** about 40 °C

**Q.** What about the “Activity in % (n = 4)” value ([1]; after 30 min at 25° C.) of the same molecule?
**A.** 101 ± 3.2%

**Q.** What about the “Activity in % (n = 4)” value ([1]; after 30 min at 30° C.) of the same molecule?
**A.** 81.2 ± 5.8%

**Q.** What about the “Activity in % (n = 4)” value ([1]; after 30 min at 35° C.) of the same molecule?
**A.** 67.0 ± 1.6%

**Q.** What about the “Activity in % (n = 4)” value ([1]; after 30 min at 37° C.) of the same molecule?
**A.** 20.2 ± 2.4%

**Q.** What about the “Activity in % (n = 4)” value ([1]; after 30 min at 40° C.) of the same molecule?
**A.** 33.4 ± 3.8%

**Q.** What about the “Activity in % (n = 4)” value ([1]; after 30 min at 42° C.) of the same molecule?
**A.** 0 ± 0%

**Q.** And the “Activity in % (n = 4)” value ([1]; after 30 min at 45° C.)?
**A.** 0 ± 0%

**Q.** And the “Activity in % (n = 4)” value ([1]; after 30 min at 50° C.)?
**A.** 0 ± 0%

**Q.** And the “Activity in % (n = 2)” value ([2]; after 30 min at pH 4, sodium acetate/acetic acid 50 mM, 100% = value directly after dilution)?
**A.** 87.5 ± 6.5%

**Q.** And the “Activity in % (n = 2)” value ([2]; after 30 min at pH 4.5, sodium acetate/acetic acid 50 mM)?
**A.** 94.5 ± 3.0%

**Q.** And the “Activity in % (n = 2)” value ([2]; after 30 min at pH 5, MES/NaOH 50 mM)?
**A.** 55 ± 5%

**Q.** And the “Activity in % (n = 2)” value ([2]; after 30 min at pH 5, sodium acetate/acetic acid 50 mM)?
**A.** 94.5 ± 1.5%

**Q.** What about the “Activity in % (n = 2)” value ([2]; after 30 min at pH 5.5, KH2PO4/K2PO4 50 mM) of the same molecule?
**A.** 96 ± 3%

**Q.** And the “Activity in % (n = 2)” value ([2]; after 30 min at pH 5.5, MES/NaOH 50 mM)?
**A.** 77.1 ± 2.1%

**Q.** What about the “Activity in % (n = 2)” value ([2]; after 30 min at pH 6, KH2PO4/K2PO4 50 mM) of the same molecule?
**A.** 100 ± 0%

**Q.** And the “Activity in % (n = 2)” value ([2]; after 30 min at pH 6, triethanolamine/NaOH 50 mM)?
**A.** 100 ± 0%

**Q.** What about the “Activity in % (n = 2)” value ([2]; after 30 min at pH 6.5, KH2PO4/K2PO4 50 mM) of the same molecule?
**A.** 97.5 ± 2.5%

**Q.** And the “Activity in % (n = 2)” value ([2]; after 30 min at pH 6.5, triethanolamine/NaOH 50 mM)?
**A.** 100 ± 0%

**Q.** What about the “Activity in % (n = 2)” value ([2]; after 30 min at pH 7, KH2PO4/K2PO4 50 mM) of the same molecule?
**A.** 100 ± 0%

**Q.** What about the “Activity in % (n = 2)” value ([2]; after 30 min at pH 7, triethanolamine/NaOH 50 mM) of the same molecule?
**A.** 97.9 ± 2.1%

**Q.** What about the “Activity in % (n = 2)” value ([2]; after 30 min at pH 7.5, KH2PO4/K2PO4 50 mM) of the same molecule?
**A.** 97.5 ± 7.5%

**Q.** What about the “Activity in % (n = 2)” value ([2]; after 30 min at pH 7.5, tris/HCl 50 mM) of the same molecule?
**A.** 94.6 ± 1.3%

**Q.** What about the “Activity in % (n = 2)” value ([2]; after 30 min at pH 8, KH2PO4/K2PO4 50 mM) of the same molecule?
**A.** 93.0 ± 3.0%

**Q.** And the “Activity in % (n = 2)” value ([2]; after 30 min at pH 8, tris/HCl 50 mM)?
**A.** 89.2 ± 0%

**Q.** What about the “Activity in % (n = 2)” value ([2]; after 30 min at pH 8.5, KH2PO4/K2PO4 50 mM) of the same molecule?
**A.** 102.5 ± 2.5%

**Q.** What about the “Activity in % (n = 2)” value ([2]; after 30 min at pH 8.5, tris/HCl 50 mM) of the same molecule?
**A.** 60 ± 4.2%

**Q.** What about the “Activity in % (n = 2)” value ([2]; after 30 min at pH 9, glycine/NaOH 50 mM) of the same molecule?
**A.** 76.5 ± 1.5%

**Q.** What about the “Activity in % (n = 2)” value ([2]; after 30 min at pH 9, tris/HCl 50 mM) of the same molecule?
**A.** 63.1 ± 4.8%

**Q.** And the “Activity in % (n = 2)” value ([2]; after 30 min at pH 9.5, glycine/NaOH 50 mM)?
**A.** 52.5 ± 7.5%

**Q.** And the “Activity in % (n = 2)” value ([2]; after 30 min at pH 10, glycine/NaOH 50 mM)?
**A.** 52.5 ± 7.5%

**Q.** And the “Activity in % (n = 2)” value ([2]; after 30 min at pH 11, glycine/NaOH 50 mM)?
**A.** 0.0 ± 0%

**Q.** What about the “Activity in U/ml of undiluted enzyme” value ([3]; assay at pH 4, sodium acetate/acetic acid) of the same molecule?
**A.** 85 U/ml

**Q.** And the “Activity in U/ml of undiluted enzyme” value ([3]; assay at pH 4.5, sodium acetate/acetic acid)?
**A.** 132 U/ml

**Q.** And the “Activity in U/ml of undiluted enzyme” value ([3]; assay at pH 5, MES/NaOH)?
**A.** 218 U/ml

**Q.** And the “Activity in U/ml of undiluted enzyme” value ([3]; assay at pH 5.5, MES/NaOH)?
**A.** 240 U/ml

**Q.** What about the “Activity in U/ml of undiluted enzyme” value ([3]; assay at pH 6, triethanolamine/NaOH) of the same molecule?
**A.** 381 U/ml

**Q.** What about the “Activity in U/ml of undiluted enzyme” value ([3]; assay at pH 6.5, triethanolamine/NaOH) of the same molecule?
**A.** 349 U/ml

**Q.** What about the “Activity in U/ml of undiluted enzyme” value ([3]; assay at pH 7, triethanolamine/NaOH) of the same molecule?
**A.** 510 U/ml

**Q.** And the “Activity in U/ml of undiluted enzyme” value ([3]; assay at pH 7.5, tris/HCl)?
**A.** 707 U/ml

**Q.** What about the “Activity in U/ml of undiluted enzyme” value ([3]; assay at pH 8, tris/HCl) of the same molecule?
**A.** 585 U/ml

**Q.** What about the “Activity in U/ml of undiluted enzyme” value ([3]; assay at pH 8.5, tris/HCl) of the same molecule?
**A.** 486 U/ml

**Q.** And the “Activity in U/ml of undiluted enzyme” value ([3]; assay at pH 9, tris/HCl)?
**A.** 488 U/ml

**Q.** And the “Activity in U/ml of undiluted enzyme” value ([3]; assay at pH 10, glycine/NaOH)?
**A.** 131 U/ml

**Q.** What about the “Activity in U/ml of undiluted enzyme” value ([3]; assay at pH 11, glycine/NaOH) of the same molecule?
**A.** 0 U/ml

**Q.** What about the “Activity in U/ml of undiluted enzyme” value ([4]; assay temperature 25° C.) of the same molecule?
**A.** 540 U/ml

**Q.** And the “Activity in U/ml of undiluted enzyme” value ([4]; assay temperature 30° C.)?
**A.** 1235 U/ml

**Q.** And the “Activity in U/ml of undiluted enzyme” value ([4]; assay temperature 35° C.)?
**A.** 1968 U/ml

**Q.** And the “Activity in U/ml of undiluted enzyme” value ([4]; assay temperature 40° C.)?
**A.** 1621 U/ml

**Q.** And the “Activity in U/ml of undiluted enzyme” value ([4]; assay temperature 45° C.)?
**A.** 2469 U/ml

**Q.** What about the “Activity in U/ml of undiluted enzyme” value ([4]; assay temperature 50° C.) of the same molecule?
**A.** 2469 U/ml

**Q.** What about the “Activity in U/ml of undiluted enzyme” value ([4]; assay temperature 55° C.) of the same molecule?
**A.** 2855 U/ml

**Q.** What about the “Activity in U/ml of undiluted enzyme” value ([4]; assay temperature 60° C.) of the same molecule?
**A.** 0 U/ml

**Q.** And the “activity per wet mass” value [5, 7]?
**A.** 20 000 U/g of wet mass

**Q.** What about the volume activity [5, 7] of the same molecule?
**A.** approximately 2000 U/ml

**Q.** What about the “activity per wet mass on overexpression in Escherichia coli” value ([5]; overexpressed in Escherichia coli RB 791) of the same molecule?
**A.** 20 000 units/g of wet mass

**Q.** And the volume activity ([5]; purified enzyme, Q-Sepharose ff)?
**A.** about 800 U/ml

**Q.** What about the “stability in the combination of solvents used in the two-phase system (in words)” value [6] of the same molecule?
**A.** stable and active
